# Numbering of substitutions follows the chain as printed. Numbers in names are those of the source. Ends that are not written are not given here. FAM = 5,6-carboxyfluorescein
# T1: Nrd1 CID (S. cerevisiae, UniProt P53617 1-153)
# T1 construct: The NMR sample was uniformly 15N,13C-labelled; also called wild-type Nrd1 CID; source: recombinant, purified as described previously (Kubicek et al, 2012)
# T1 sequence (looked up): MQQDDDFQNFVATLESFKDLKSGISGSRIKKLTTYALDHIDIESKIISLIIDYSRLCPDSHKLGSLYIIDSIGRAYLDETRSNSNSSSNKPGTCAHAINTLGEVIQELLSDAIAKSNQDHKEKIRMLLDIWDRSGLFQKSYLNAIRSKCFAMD
# T2: Nrd1 CID S25D (S. cerevisiae, UniProt P53617 1-153, S25D)
# T2 construct: Nrd1 CID, S. cerevisiae; source: recombinant, purified as described previously (Kubicek et al, 2012)
# T2 sequence (looked up): T1 sequence (looked up) with S25D
# B1: Nrd1 CID I130A (domain or fragment)
# chain: T1 sequence (looked up) with I130A
# B2: Nrd1 CID I130K (domain or fragment)
# chain: T1 sequence (looked up) with I130K
# B3: Nrd1 CID I130N (domain or fragment)
# chain: T1 sequence (looked up) with I130N
# B4: Nrd1 CID M126A (domain or fragment)
# chain: T1 sequence (looked up) with M126A
# B5: Nrd1 CID R133A (domain or fragment)
# chain: T1 sequence (looked up) with R133A
# B6: Nrd1 CID L20D (domain or fragment)
# chain: T1 sequence (looked up) with L20D
# B7: Nrd1 CID R133D (domain or fragment)
# chain: T1 sequence (looked up) with R133D
# B8: Nrd1 CID R133G (domain or fragment)
# chain: T1 sequence (looked up) with R133G
# B9: Nrd1 CID K21D (domain or fragment)
# chain: T1 sequence (looked up) with K21D
# B10: Nrd1 CID R28D (domain or fragment)
# chain: T1 sequence (looked up) with R28D
# B11: Nrd1 CID (domain or fragment)
# chain: T1 sequence (looked up)
# B12: Sen1 NIM peptide, FAM-labelled (peptide, UniProt Q00416 2052-2063, looked up)
# peptide: {FAM}-DDDEDDYTPSIS
# notes: The text prints D2052-D2053-D2054-E2055-D2056-D2057, Y2058, T2059, P2060, S2061 and I2062; source: synthetic peptide
# B13: Sen1 NIM peptide (NMR) (peptide, UniProt Q00416 2052-2063, looked up)
# peptide: DDDEDDYTPSIS
# notes: The text prints D2052-D2053-D2054-E2055-D2056-D2057, Y2058, T2059, P2060, S2061 and I2062; it is surmised to be unlabelled; source: synthetic peptide
# Tests used:
# [1] = target: Trf4 NIM peptide (S. cerevisiae); assay: fluorescence polarisation; fluorescence anisotropy, equilibrium binding of Nrd1 CID variants to FAM-labelled NIM peptides; 10°C, 50 mM Na2HPO4, 100 mM NaCl, pH 8; 1:1 model with non-specific binding (DynaFit)
# [2] = target: Sen1 NIM peptide (Sen1 aa 2,052-2,063) (S. cerevisiae) (UniProt Q00416); assay: as above
# [3] = target: Trf4 NIM peptide, FAM-labelled (S. cerevisiae); assay: fluorescence polarisation; fluorescence anisotropy; N-terminally FAM-labelled NIM peptides with purified Nrd1 CID versions; 10°C, 50 mM Na2HPO4, 100 mM NaCl, pH 8; 1:1 model with non-specific binding (DynaFit)
# Nrd1 CID [4] = target: T1, Nrd1 CID; assay: as above; settings: both partners purified
# Nrd1 CID S25D = target: T2, Nrd1 CID S25D; assay: as above; settings: both partners purified
# Nrd1 CID [5] = target: T1, Nrd1 CID; assay: NMR titration; [1H,15N] HSQC of Nrd1 CID titrated with NIM peptide, chemical shift perturbations; 20°C, 50 mM Na2HPO4, 100 mM NaCl, pH 8; settings: both partners purified
Molecule,Kd [1],also measured
Nrd1 CID S25D (from UniProt P53617 1-153) (domain or fragment),53.9 µM,Kd [2]: 76.1 µM
B1,4.5 µM,
B2,14.1 µM,
B3,6.1 µM,
B4,1.1 µM,
B5,1.4 µM,
B6,13.4 µM,
B7,1.2 µM,
B8,1.3 µM,
B9,6.1 µM,
B10,63.4 µM,
B11,,Kd [3]: 0.9 µM
B12,,Kd (Nrd1 CID [4]): 1.2 ± 0.02 µM; binding result (Nrd1 CID S25D): binds
B13,,binding result (Nrd1 CID [5]): binds

# From publication PMC7110113, “Termination of non‐coding transcription in yeast relies on both an RNA Pol II CTD interaction domain and a CTD‐mimicking region in Sen1” (The EMBO Journal, 2020)
